# Laboratory results reported in article PMC8344021, “Discovery of Small Molecule Bak Activator for Lung Cancer Therapy” (Theranostics, 2021).
# Values joined by “and” are separate entries in the source; they are usually repeats but may differ in a detail not shown here. Identical values can stand only once.
# T1: Bak (endogenous, mitochondria of A549 cells) (human (endogenous in A549)), Q16611
# T1 chain: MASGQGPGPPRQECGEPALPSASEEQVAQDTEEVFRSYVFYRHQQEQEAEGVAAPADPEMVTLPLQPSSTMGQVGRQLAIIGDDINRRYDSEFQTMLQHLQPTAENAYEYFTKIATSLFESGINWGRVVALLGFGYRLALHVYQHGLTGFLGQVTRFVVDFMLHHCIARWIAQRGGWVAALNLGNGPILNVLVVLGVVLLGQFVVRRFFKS
# Target: T1, Bak (endogenous, mitochondria of A549 …)
# Assay: cross-linking; A549 cells treated with BKA-073 (1 uM) for 24 h; mitochondrial fraction; 10 mM BMH in PBS pH 7.2 with 5 mM EDTA, 1 h at room temperature, quenched with DTT; SDS-PAGE and Western blot with a Bak antibody
# Conditions: remark: other sources report otherwise
binder,measurement,value
"Bak (endogenous, mitochondria of A549 cells), Q16611 1-211 (natural protein) MASGQGPGPPRQECGEPALPSASEEQVAQDTEEVFRSYVFYRHQQEQEAEGVAAPADPEMVTLPLQPSSTMGQVGRQLAIIGDDINRRYDSEFQTMLQHLQPTAENAYEYFTKIATSLFESGINWGRVVALLGFGYRLALHVYQHGLTGFLGQVTRFVVDFMLHHCIARWIAQRGGWVAALNLGNGPILNVLVVLGVVLLGQFVVRRFFKS",stoichiometry N,2 and 3
